Reference: patent US20250368735A1 (AKESO BIOPHARMA, published 2025)
One block for each binder: values may come before it.

Columns and labels:
[1] = biological target: T1, CLDN18.2 on the cell membrane surface (CHO-K1-CLDN18.2 cells, CHO-K1-CLDN18.2-CD47 cells, CHO-K1-hClaudin18.2 … (human, UniProt P56856-2 1-261)); experiment: indirect ELISA screening with CHO-K1-hClaudin18.2 cells as antigen
T1 construct: whole, on cells; also called human Claudin18.2

CD47 ECD-His = biological target: T2, CD47 ECD-His (human, UniProt Q08722 19-141, limits assumed); experiment: BLI (Fortebio Octet), antibody on AHC sensor, CD47 ECD-His 4.94-400 nM, 1:1 fit
T2 construct: extracellular domain; also called human CD47 ECD-His; not shown: His tag
Experimental: The affinity constant of the antibody for human CLDN18.2 and CD47 ECD-His was determined using a Fortebio Octer molecular interaction instrument. The sample dilution buffer was PBS (0.02% Tween-20, 0.1% BSA, pH 7.4). The method for detecting the affinity of the antibody for human CLDN18.2 is as follows. The antibody at 20 nM was immobilized on an AHC sensor for 60 s. The sensor was equilibrated in a buffer for 60 s, and the binding of the immobilized antibody on the sensor to CLDN18.2 His at concentrations of 6.25-100 nM (two-fold dilution) was determined for 180 s. The protein was dissociated in the buffer for 360 s. The method for detecting the affinity of the antibody to human CD47 ECD-His is as follows. The antibody at 30 nM was immobilized on an AHC sensor for 120 s. The sensor was equilibrated in a buffer for 60 s, and the binding of the immobilized antibody on the sensor to the protein CD47 ECD-His at concentrations of 4.94-400 nM (three-fold dilution) was determined for 50 s. The protein was dissociated in the buffer for 120 s. The shaking speed of the sample plate was 1000 rpm, the temperature was 30° C., and the frequency was 5.0 Hz. The data were analyzed by 1:1 model fitting to obtain affinity constants. The data acquisition software was Fortebio Data Acquisition 12.0, and the data analysis software was Fortebio Data Analysis HT 12.0.

[2] = biological target: T3, CD47 on the cell membrane surface (CHO-K1-CLDN18.2-CD47 cells, 3T3-CD47 cells, human red blood cells, human T … (human, UniProt Q08722 19-323)); experiment: flow cytometry (FACS) on CHO-K1-CLDN18.2-CD47 cells, PE anti-human IgG Fc
T3 construct: whole, on cells; blood cells came from healthy human volunteers; also called cell membrane surface antigen CD47
Experimental: CHO-K1-CLDN18.2-CD47 cells (CHO-K1 cells overexpress CLDN18.2 and CD47 antigens, and are obtained from Cell Resource Center, Institute of Basic Medical Sciences, Chinese Academy of Medical Sciences) in the logarithmic growth phase were collected, and were transferred to a V-bottomed 96-well plate at 1×10⁵ cells/well. 100 μL of 1% PBSA (PBS+1% BSA) was added, and the mixture was centrifuged at 1000×g for 5 min, followed by removal of the supernatant. […] The mixture was mixed gently and well, and then incubated on ice for 40 min. 150 μL of 1% PBSA was added to each well, and the mixture was centrifuged at 1000×g for 5 min. The supernatant was discarded, and the plate was further washed three times at 200 μL/time. […] The diluted antibody was added to corresponding samples at 100 μL/well, and the cell pellet was resuspended and incubated on ice in the dark for 0.5 h. 150 μL of 1% PBSA was added to each well, and the mixture was centrifuged at 1000 g for 5 min, followed by removal of the supernatant. Then the plate was washed twice with 200 μL of 1% PBSA. 200 μL of 1% PBSA was added to each well to resuspend the cell pellet, and the mixture was transferred to a flow cytometry tube. FACS Calibur assay was performed, and the binding activity was analyzed.

CD47 IgV TEV-His [3] = biological target: T4, CD47 IgV TEV-His (human, UniProt Q08722 19-141); experiment: indirect ELISA, coated CD47-Igv-TEV-his 2 µg/mL
T4 construct: range 19-141; also called human CD47 IgV TEV-His; not shown: his tag
Experimental: After blocking, the ELISA plate was washed 3 times with PBST. The ELISA plate containing the test antibodies was incubated at 37° C. for 30 min and then washed 3 times with PBST. […] The data were analyzed and processed by SoftMax Pro 6.2.1.

[4] = biological target: T3, CD47 on the cell membrane surface …; experiment: competitive flow cytometry on CHO-K1-CLDN18.2-CD47 cells; competitor hSIRPaV2-hFc-mFc at 3 nM
Experimental: 100 μL of 1% PBSA was then added to each well, and the mixture was centrifuged and washed.

CD47 IgV TEV-His [5] = biological target: T4, CD47 IgV TEV-His; experiment: indirect ELISA screening with CD47 IgV TEV-His as antigen
[6] = biological target: T5, human CLDN18.2 (ELISA coating antigen) (human, UniProt P56856-2 1-261, limits assumed); experiment: indirect ELISA, coated human CLDN18.2 2 µg/mL
T5 construct: also called antigen human CLDN18.2
Experimental: After blocking, the ELISA plate was washed 3 times with PBST. The ELISA plate containing the test antibodies was incubated at 37° C. for 30 min and then washed 3 times with PBST. […] The ELISA plate was put into a microplate reader immediately, and the OD value of each well in the ELISA plate was read at 450 nm. The data were analyzed and processed by SoftMax Pro 6.2.1.

binding result [1]: binds
B1: 8C5.1 (antibody, V domains shown)
VH: EVQLVESGGGLVKPGGSLKLSCAASGFTFSNSAVSWVRQTPEKRLEWVATITSGVSYTYYLDSVRGRFTISRDNAKNTLYLQMSSLRSEDTAMYYCTRQFKGNALDYWGQGTSVTVSS
VL: DIVMTQSPSSLTVTAGEKVTMSCKSSQSLLNSGNQKNYLTWYQQKPGQPPKLLIYWASTRESGVPDRFTGSGSGTDFTLTINNFQAEDLAVYYCQNDYFYPLTFGAGTKLELK
notes: Mouse hybridoma antibody; also called anti-CLDN18.2 antibody 8C5.1; monoclonal antibody secreted by hybridoma cell line LT020

Kd (CD47 ECD-His): 27.3 nM
koff (CD47 ECD-His): 0.0142 s⁻¹
kon (CD47 ECD-His): 519000 M⁻¹ s⁻¹
EC50 [2]: 1.29 nM
EC50 (CD47 IgV TEV-His [3]): 0.012 nM
EC50 [4]: 5 nM
B2: 6F7H1L1(hG4) (antibody, V domains shown)
VH: QVQLVQSGAEVVKPGASVKLSCKASGYTFTSYWMNWVRQRPGQGLEWIGMIDPSDSETHNAQKFQGKATLTVDKSTSTAYMHLSSLRSEDTAVYYCARLYRWYFDVWGAGTTVTVSS
VL: NIVMTQSPATMSMSPGERVTLSCRASEIVGTYVSWFQQKPGQAPRLLIYGASNRYTGVPARFSGSGSGTDFTLTISSVQPEDLADYHCGQSYNFPYTFGGGTKLEIKR

binding result (CD47 IgV TEV-His [5]): binds
B3: 6F7 (antibody, V domains shown)
VH: QVQLQQPGAELVRPGASVKLSCKASGYTFTSYWMNWVKQRPGQGLEWIGMIDPSDSETHNNQMFKDKATLTVDKSSNTAYMHLSSLTSEDSAVYHCARLYRWYFDVWGAGTTVTVSS
VL: NIVMTQSPKSMSMSLGERVTLSCKASEIVGTYVSWFQQKPHQSPKLLIYGASNRYTGVPDRFTGSGSATDFTLTISNVQAEDLADYHCGQSYNFPYTFGGGTKLEIK
notes: Mouse hybridoma antibody; also called anti-CD47 antibody 6F7; monoclonal antibody secreted by hybridoma cell line LT012

EC50 [6]: 0.014 nM
B4: IMAB362 (antibody, V domains shown)
VH: QVQLQQPGAELVRPGASVKLSCKASGYTFTSYWINWVKQRPGQGLEWIGNIYPSDSYTNYNQKFKDKATLTVDKSSSTAYMQLSSPTSEDSAVYYCTRSWRGNSFDYWGQGTTLTVSS
VL: DIVMTQSPSSLTVTAGEKVTMSCKSSQSLLNSGNQKNYLTWYQQKPGQPPKLLIYWASTRESGVPDRFTGSGSGTDFTLTISSVQAEDLAVYYCQNDYSYPFTFGSGTKLEIKR
